± gives the standard deviation of the averaged measurements.
Test system: ATP
Assay: switch fluorescence ratio, 500 uM ATP over buffer (Cy3 cluster intensity, sum of 5 cycles each) (fold (ratio)); higher = stronger signal-on switching upon ATP binding; sequences stand for … in TCGTCGGCAGCGTCAGATGTGTATAAGAGACAGTTTTTTTTTTTTTTTTTTTTTTTTT…TC
Settings: aptamer strand: ATP DNA aptamer (quencher-CACCTGGGGGAGTATTGCGGAGGAAGG + anchor), 100 nM annealed; ATP concentration: 500 uM
Summary of the method: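 Values give the fluorescence ratio for each switch-domain sequence, averaged from per-cluster ratios of summed target-cycle to summed buffer-cycle Cy3 intensity. The Cy3-labelled switching-strand clusters sat on a modified Illumina MiSeq flow-cell, were annealed to 100 nM quencher-labelled ATP aptamer, and were imaged in selection buffer, then after 15 min with 500 uM ATP at 22 °C. Five cycles ran with NaOH stripping and re-annealing between them, and clusters outside 100-1000 RFU were excluded.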
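Also: ATP exposure 15 min at 22 °C before imaging.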

| Sequence | switch fluorescence ratio |
| --- | --- |
| CAACCGTGAA | 1.91 ± 0.92 |
| AATAATCGCC | 1 ± 0.05 |
| TAAAGAACGT | 0.942 ± 0.015 |
| GGTCTTTTGG | 0.981 ± 0.013 |
| AGAGGTTTTG | 1.01 ± 0.042 |
| TCGCTTTACT | 3.87 ± 0.81 |
| GGGATTCGCA | 0.99 ± 0.053 |
| CTGTGCAGCG | 1.01 ± 0.019 |
| GTCGTTAGGG | 0.963 ± 0.051 |
| AATGTAATTA | 1.01 ± 0.011 |
| GTGAGGGGTA | 0.975 ± 0.033 |
| CGCCAAATTT | 1.07 ± 0.1 |
| TCAGAGGGCT | 0.991 ± 0.018 |
| ACGTGTTTTG | 1.02 ± 0.018 |
| TTGTGGGGG | 1.0016 ± 0.0009 |
| CGTGTTTTCC | 1.022 ± 0.0015 |
| AAAGAGGTTC | 1.04 ± 0.068 |
| GCCGCTGGTG | 1.22 ± 0.077 |
| CCGTATCCCT | 1.03 ± 0.043 |
| CCCAATTATT | 1.016 ± 0.0048 |
| CAGGTGATAC | 2.42 ± 0.29 |
| TTTTGATCGA | 1.03 ± 0.11 |
| TTTGAACTTG | 1.01 ± 0.024 |
| ACGATAACTT | 1.21 ± 0.034 |
| TCTCTAGCTG | 1.05 ± 0.041 |

| Sequence | switch fluorescence ratio |
| --- | --- |
| AAGGGGGGGT | 0.999 ± 0.03 |
| TAAGTGGGGA | 0.959 ± 0.032 |
| TAAGTTGTTG | 0.993 ± 0.042 |
| ACATTGATGG | 1.028 ± 0.00017 |
| TAATAAATCA | 1 ± 0.036 |
| CTAAGGGTTC | 0.999 ± 0.015 |
| TCCCGCGGCT | 1.08 ± 0.045 |
| CGTATTCTGA | 0.966 ± 0.064 |
| AAGGGCCTGG | 0.982 ± 0.029 |
| AGCTGATACG | 1.31 ± 0.0078 |
| GCCTCAGGGT | 1.08 ± 0.02 |
| CGATGGGATA | 1.03 ± 0.02 |
| TTATGTTTAG | 0.976 ± 0.045 |
| TTGCGTGTTG | 1.01 ± 0.019 |
| TGGGTAGTAT | 0.977 ± 0.012 |
| TAGGTATATC | 0.9843 ± 0.006 |
| ACGCACTAAG | 1.61 ± 0.026 |
| GGGGGAGGAG | 0.996 ± 0.013 |
| TGAGATACAT | 1.13 ± 0.1 |
| CCGGGCTGGA | 1.08 ± 0.074 |
| TCGGGTGGTG | 0.92 ± 0.16 |
| ATAGGCATTT | 1.03 ± 0.013 |
| CAGTAGGGCA | 0.982 ± 0.041 |
| TTAAGCCTGG | 0.962 ± 0.022 |
| TTGAGGTTCG | 1.05 ± 0.14 |

| Sequence | switch fluorescence ratio |
| --- | --- |
| TGGTGAAGGG | 0.976 ± 0.016 |
| GTTCTGCAAT | 3.97 ± 0.11 |
| ACGTGACCCA | 1.35 ± 0.071 |
| TTTCGTGCTT | 1.02 ± 0.032 |
| TGTGGTGCAG | 1 ± 0.042 |
| GCTCTGTGTT | 0.993 ± 0.017 |
| TAGGCTAGGC | 0.971 ± 0.022 |
| TAGGCTCTTT | 0.9777 ± 0.008 |
| TGGCAGACGG | 1.01 ± 0.038 |
| GGTCGCTTGG | 1.04 ± 0.061 |
| CAATACTCAA | 2.14 ± 0.023 |
| CAGAGAAGGC | 0.991 ± 0.018 |
| TCAGTATGTT | 0.965 ± 0.019 |
| GTGGGAGGGA | 1.02 ± 0.043 |
| AGGGTCGGCT | 0.993 ± 0.02 |
| ACATTTTCGT | 0.991 ± 0.032 |
| TTGTATCACG | 1.03 ± 0.059 |
| ACAGAGGTTT | 0.984 ± 0.035 |
| TCTTTGTATG | 0.991 ± 0.017 |
| TAAAGGTTGG | 0.962 ± 0.025 |
| CGTGTTTTCT | 0.99 ± 0.031 |
| GTGATAAGAC | 1.042 ± 0.0085 |
| CACAGGAGGG | 1.03 ± 0.019 |
| GGGGACTAGG | 0.982 ± 0.058 |
| TATGTATAGG | 1.03 ± 0.049 |

| Sequence | switch fluorescence ratio |
| --- | --- |
| TAGTGTAGGC | 1.03 ± 0.014 |
| GGAAGATTCG | 0.984 ± 0.03 |
| CAGGTGGTGT | 1.11 ± 0.066 |
| TGGGAAAAAC | 1.09 ± 0.1 |
| TTACGGGCTA | 0.9975 ± 0.0081 |
| ACTATCTATT | 0.997 ± 0.034 |
| GAGGGTTTTG | 0.9768 ± 0.0092 |
| AAGATGAGTA | 0.982 ± 0.032 |
| CAATGAGGTG | 1.08 ± 0.036 |
| GCCGCGTATA | 1.43 ± 0.058 |
| TACACGGGTT | 1.01 ± 0.035 |
| CTGGGTTAGG | 0.973 ± 0.032 |
| GGGGGTAGGT | 0.985 ± 0.036 |
| TTTATAGTCT | 0.99 ± 0.021 |
| CCTTTCGGCT | 1.068 ± 0.0038 |
| TGTTGGCAGG | 1.02 ± 0.012 |
| TTTTGATGTA | 0.977 ± 0.019 |
| TTCCTGGGTT | 1.002 ± 0.0097 |
| AGGCGTAAAA | 0.985 ± 0.019 |
| TTAGTTTGAA | 0.968 ± 0.012 |
| GAATGCTCAC | 1.14 ± 0.064 |
| GCGTCCCGTG | 0.985 ± 0.11 |
| TTGAGTCGGA | 1.42 ± 0.7 |
| GGGGGCTGTT | 1 ± 0.014 |
| GAGCTTGCGA | 1.03 ± 0.044 |
